± gives the standard deviation of the averaged measurements.
Assays:
[1] = PET hydrolysis, aromatic products released after 48 h (umol product/mg enzyme); higher = more PET depolymerization activity
Procedure, shortened: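 Tagless, SUMO-cleaved candidate enzymes were purified on nickel beads, and 5 μg (50 μL) was added to 3.5 mg amorphous PET film or crystalline PET powder in 450 μL buffer. Buffers were 50 mM NaCitrate (pH 4.5, 5.5), 50 mM NaPhosphate (pH 6.5, 7.5) or glycine (pH 8.5). Sealed plates were incubated 48 h at 40 or 60 °C without shaking. PET hydrolysis activity is the aromatic product in the supernatant, read by absorbance at 260 and 280 nm against buffer blanks and expressed per mg enzyme.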

[2] = purified protein yield per well (BCA); higher = higher soluble expression
Procedure, shortened: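 Purified protein yield per well is reported, as measured by the Pierce Rapid Gold BCA kit. The enzymes came from E. coli C41(DE3) autoinduction cultures of 2 mL with 100 µg/mL kanamycin, held at 37 °C for 2 h and 18 °C for 40 h, then lysed and purified on Ni-charged magnetic beads with SUMO protease release. The detection threshold is 25 ug (0.1 mg/mL), and lower values are under it.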

[3] = melting temperature (DSF); higher = more thermostable
Procedure, shortened: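 Enzymes made in E. coli C41(DE3) were nickel-bead purified and cut free with SUMO protease before testing. Differential scanning fluorimetry gave each melting temperature. For this, 5 μL 5X Sypro Orange was added to 45 μL enzyme (0 to 0.3 mg/mL) in sealed PCR plates, and a Bio-Rad CFX96 read fluorescence from 25 °C over 250 cycles of 0.3 °C each, ramping at 0.3 °C/s.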

[4] = substrate: cryPow, 40 °C, pH 4.5
[5] = substrate: cryPow, 40 °C, pH 5.5
[6] = substrate: cryPow, 40 °C, pH 6.5
[7] = substrate: cryPow, 40 °C, pH 7.5
[8] = substrate: cryPow, 60 °C, pH 4.5
[9] = substrate: cryPow, 60 °C, pH 5.5
[10] = substrate: cryPow, 60 °C, pH 6.5
[11] = substrate: cryPow, 60 °C, pH 7.5
[12] = substrate: aFilm, 40 °C, pH 4.5
[13] = substrate: aFilm, 40 °C, pH 5.5
[14] = substrate: aFilm, 40 °C, pH 6.5
[15] = substrate: aFilm, 40 °C, pH 7.5
[16] = substrate: aFilm, 60 °C, pH 4.5
[17] = substrate: aFilm, 60 °C, pH 5.5
[18] = substrate: aFilm, 60 °C, pH 6.5
[19] = substrate: aFilm, 60 °C, pH 7.5
[20] = substrate: aFilm, 40 °C, pH 8.5
[21] = substrate: aFilm, 60 °C, pH 8.5
[22] = substrate: cryPow, 40 °C, pH 8.5
[23] = substrate: cryPow, 60 °C, pH 8.5

Sequence	PET hydrolysis [1, 4]	PET hydrolysis [1, 5]	PET hydrolysis [1, 6]	PET hydrolysis [1, 7]	PET hydrolysis [1, 8]	PET hydrolysis [1, 9]	PET hydrolysis [1, 10]	PET hydrolysis [1, 11]	purified protein yield per well [2]	melting temperature [3]	PET hydrolysis [1, 12]	PET hydrolysis [1, 13]	PET hydrolysis [1, 14]	PET hydrolysis [1, 15]	PET hydrolysis [1, 16]	PET hydrolysis [1, 17]	PET hydrolysis [1, 18]	PET hydrolysis [1, 19]	PET hydrolysis [1, 20]	PET hydrolysis [1, 21]	PET hydrolysis [1, 22]	PET hydrolysis [1, 23]
DQGPPPTIASLSVDGAYAVMTYTDIPDVPEFGDATVYYPVDTAMPIGGVAISPGWTELQRHIEWWGPRLASHGYAVLILDTNDAMADQPEQRAEALIAAVRILRGENDRAGSPLSGRIDTEKMAIMGHSMGGGGVLIAANNYPAEIQAAIPFTPWQPAGDFSQVVAPTLVMAGSADRVASVSDHAWPHYQSIPESTIKVFLEIDGGSHFIADTSRGEDLGTIGRYGIAWLKLYLDGDERYRGFIYGDEAASDSEKFSRYVTSP [TEP021]	< 3	< 3	< 3	< 3	< 3	< 3	< 3	< 3	76.5 µg	30.7 C												
DQIGQAPTASNITGNGSFATTSASISSTVSGFGGGRVYYPTAAGTYPVIAISPGFTATWSSLAWIGPRLSSWGFVVVGIETNSIYDQPASRGNQLLAALNWAVNSSPTAVRSHVDGSRRGVAGHSMGGGGTLEALAADTTGLVKAGVPLAPWNTDKTWNNVSEPVLIVGGQADTVAPVASHSIPFYNTLAGPKTYVELTGQSHFFPQTTNATASRALVAWFKRWVSQDSRFTPFTCGFSGVAVSDFRSNAC [ESM082]	9	22	29	36	< 3	23	46	65	151 µg	67.6 C												
DQVGQAPTADNITGNGSFATTSAAITNQTGFGGGTVYYPTADGTYPVVAIVPGFAATWSQISWLGPRVASWGFVVVGVDTTSVFDSPQQRGDEFLAALNWAANSAPASTRGKVDGTRRGVAGWSMGGGGTLEAMAKDTTLKAGVPLAPWDTTQDWSKIGKPVFIVGAQNDLIAPPASHAIPFYNSLAGPKSYLELAGADHFFPISANPTVSRAVVSWFKRFVSADDRFAPFTCGFAGAAVSAFRTTAC [TEP103]	19	35	71	43					45.9 µg	71.8 C												
DSPYQRGPDPTLASVAATRGPFATTQATVPAGNGFNGGFVYYPTDTSLGTWGAVAIVPGYSALFANEEAWMGPWLASFGFVVLGIETNSRTDGADARATQLLAGLDYLTRTSPVRSRVDANRLGVMGHSAGGAGTLLAALRRPSLKTAVGLAPGTPGNNLNMSTTQVPTLLLSGQNDGTVTPSYVQGIYNTLPATVEHAWAELAGNDHLSFTRSNPTEMRLLIPWLKIFLDSDTRYTQFLCPLADSTGVSRYSSTCPLVPSGGPTPPPTTTPPPPTTTPPPTSTPPPPTTTPPPTTPPAGTACTATYRTVNSWSGGFQAEVTVTAGSTATDGWTVRWNLGAGQSVSQVWNGTLSTSGTTATVRNAAYNGTLAPGTSTTFGFLGSGTPSSPSPTCTSP [ESM011]	< 3	< 3	< 3	< 3	< 3	< 3	< 3	< 3	240 µg	62.2 C	< 3	< 3	< 3	< 3	< 3	< 3	< 3	< 3				
DVNPFQRGPDPTAAGVAAARGPFATAQVTVPAGNGFGGGVVYYPTDTSQGTFGAIAIAPGYGTAWSYYAWQGPRLASFGFVVIGIETNTLNDYADARAAQLLAALDWLVTSSPVRDRVDRNRLAVGGHSMGGGGALLAAIQRPSLMTAIGMAPYVPGGDLSGIRIPTVLFAGQTDGTVTPSYALSAYTTIPGSVERAYVEIANEGHGFPAGGGGGNSGAFARTEMIWMKLFIDKDTRYAPFLCPSLSNMNGISRYQASCPLDPPGGTTPTPSATPTSSPTSTPTSTPSATSALRGAGSSRCLDVPGASQTNGTQLQIWDCNGQANQRWTSTSAGELRVYGGKCLDVNGAGTADGTSVIIWDCNGQNNQKWRLNSDGSITAVGANKCLDVSGAGTANGTKVQIWTCNGQANQRWTRT [ESM026]	< 3	4.5 ± 0.71	8.5 ± 0.71	9.5 ± 0.71	< 3	< 3	< 3	< 3	305 µg	65.8 C	< 3	< 3	< 3	< 3	< 3	< 3	< 3	< 3				
EEPASGYQRGPAPTTSSIESSRGPFSTSQVSISGLSANGFGGADVYYPTDTSQGTFGAVAISPGYTARKSSMAWLASRLASQGFVVINIDTNTTSDQPASRGRQLLAALDQVTKDSRVANRIDPTRLAVVGHSMGGGGALEASRSRPSLQAAIPLTPWNTTKSFSGNQVPTLVVGAERDTVASVRSHAEPFYRSLPSAPGKAYLELAGASHFAPNTSNTTIAKHSIAWLKLFVDNDERYRQFVCPGPTSDRAVSDYQNTCSSFTP [DP053]		< 3	< 3	< 3		< 3	< 3	< 3	235 µg	42.7 C		< 3	< 3	< 3		< 3	< 3	< 3	< 3	< 3	< 3	< 3
ENAIINGTYSLIVTQSGKALDTSQWGTIDGTNITLNDYWGGESQKFIITPVDGIWHRITPVIAPDQAFDVSKCSPNVGANIQTWSYEGGACQQFRFAETGNGTYQIITRGTDMSLNVNNLSEENDTNVMQSTSTGKENQIFTLRRHAESHISGNCPDGAICRDEEAPGLYDGKGPYNVRSYELPGAYVTLPATARVYYPANAEPPYSGIVFCPPFMTKQIAFAAWGPWFASHGMVLVTMDTTTIFDQVTARDNQQWRVVKALRRENTRLGSPLRGKLDTDKIGIMGWSMGGGASWINAGKHRDELKTVISLAGHNMTAWYNTDIYSWYSPEELLDAAYASGRLIKIPALIINGALDTTILGGLGQSDGVYRSISNTPKVLAVLGLAGHFAWGYPTQAGRGVASLVLAFEKTFLDGDTRWAPYIQKPSAPMRKWRTADLP [TEP050]	< 3	< 3	< 3	< 3	< 3	< 3	< 3	< 3	60.6 µg	46.3 C												
ETEYRKGPDPTEATVTAALGPFATASVSVPSSVAGFGGGVIHYPTDTSQGTFGAVAVAPGFLGSSANYAWMGPRLASQGFVVFLINTDSRLDQPPSRGDQLLAALDYLVTSSSVRARIDASRLAVAGHSMGGGGTLEAATDRPGLQAAIPLQPWHTVKSWPNVQVPTLIIGAENDTTAPVASHAEPFYVSIPAAAEKAYLELNNAEHRVGTAGDTTQAKFMIVWLKRYVDNDTRYEQFICPPPPAPSSEIQEYRNTCPG [TEP171]	< 3	< 3	< 3	< 3	< 3	< 3	< 3	< 3	59.3 µg	44.2 C												
FSAPGPSAPCSNCTRGPAPTVASLKASSGPFSTAKFSVSGYLKGFGNSTVYYPTNTSGKMGAIAVIPGYLSYESSIEWWGPRLASHGFVVMTMNTNSIYDQPDSRATQLSKALDYLISQSGSSSSPIYGKVDSSRLGAIGWSMGGGGSLKLSTQRSINAIIPQAPWYLGSNTFNTIKTPALILACSADTVAPVYQHASPFYNRIPTSTPKAFLEIYGGSHFCANSGYPNEDLLGMYGIAWMKRFIDFDSRYSQFLCGPNHESDYAISEYRQNCPY [ESM017]	< 3	< 3	11	33					53.8 µg	56.5 C												
GETAQTTDVSAQSQFQRGPNPTVSSIEARTGHYRTSTTRVSSFASGFGGGTIYYPTTTSDGTFGGVAVAPGYTASSSTMDWLGPRIASQGFVVFVIDTNTRLDQPSSRGRQLLAALDYLTERSSERHRVDSNRLAVMGHSMGGGGALEATISRPSLKASIPLTPWNLTKNWSRVTTPTLIVGAENDSVASVRSHSIPFYTSLSSSTDRMYVELDGASHFAPNVSNTTIAKYSISWLKRFVDDDTRYDQFLCPLPNERAISDIRGNCPR [DP090]		< 3	7	12.5 ± 9.2		< 3	< 3	2 ± 2.8	423 µg	51.4 C		< 3	5 ± 7.1	12 ± 7.1		< 3	< 3	< 3	22 ± 17	< 3	25.5 ± 0.71	2 ± 2.8
GQAAVPVAVAGTSAFAKGPDPTEQSIQAQRGPFATAQRTVPSEAGRAFNRGTVHYPTDTSHGTYGAVVVSPGFFGPEFSVAWYGSTLASHGFVVLTLETNFLFDQPDARATQLLAGLDWLAARSPVKDRVDPNRLAVMGHSMGGGGTLIAASRNPALKAAIPLTPWNTSPDFSTVTVPTLVLGTDNDTVAPVARHADPMYASLRDKPDEGYVKLRGDHFTPIRYTAAATRFIVPWLKRYVDEDTRYSRFLCPLPAPDATLVSFELRCPV [DP040]		< 3	3	< 3					28 µg	40.3 C											< 3	
GQAPTTAAQVRASAFAKGPDPTEQTIKAQRGPFQIKQLSVAAQSGRGFNRGTIYYPTDTGQGTYGAIAVIPGFLEPEFITSWYGPTLASYGFVVMTLEPFAITDFPDPRSNQLLAAVDWLAADSPVKAQVDPNRLAVMGHSMGGGGALLAASKRPSLKAAVPLAPWNLYADFAGVTVPTLVIGADNDFIAPVGMHADPMYASIKASPNEGYLKLKNADHFTVNSYSATLTKFTVSWMKRYVDEDTRYTQFLCPAPQPDPSFASFQMTCPS [TEP173]	< 3	< 3	< 3	< 3	< 3	< 3	< 3	< 3	293 µg	41.2 C	< 3	< 3	< 3	< 3	< 3	< 3	< 3	< 3				
GRVMAASDSGTAADERVYAEPSVDPASVGSAGRNPYERGPEPTLASVAAEYGPFDTDQLTVPPGHGFNGGYIYYPTDTSQTFGAVAIVPGYTALFADEEAWMGPRLASFGFVVIGIETNSRDDWDIARGEQLLAALDYLVHHSPVRARIDANRLAVVGHSMGGGGALFAATQRPSLKAVVALAPYFPSGSLAAIRVPTMIIGGQDDTVVTPSYLDDLYASRPAHTPGAYLMLADADHLFATRPNTVEMRLLIPWLKIFVDHDTRYTQFLCPVADRSGIARHHVT [TEP126]	< 3	< 3	< 3	< 3	< 3	< 3	< 3	< 3	166 µg	55.9 C												
